# Measured values published in patent US20220411514A1, “ANTI-GAL3 ANTIBODIES AND METHODS OF USE FOR INSULIN RESISTANCE” (TrueBinding, Inc., priority 2021, published 2022).
# Substitutions are numbered along the chain they refer to.
# B1: 847.13E2-mH0mL1: anti-Gal3 antibody (antibody, V domains shown)
# VH: EVQLQQSGPELVKPGASVKVSCKASGYSFTDYNMYWVMQSHGKSLEWIGYIDPYNDATSYSQKFTGKATLTVDKSSSTAFMHLNSLTSEDSAVYYCARWGRYEYYAMDYWGQGTSVTVSS
# VL: DIVMTQSPASLPVSLGQRATISCRASKSVTTSAYSYIHWYQQRPGQPPKLLIYLASNLESGVPARFSGSGSGTDFTLNIHPVEEEDAATYYCQHNRELPPTFGGGTKLEIN
# B2: 847.13E2-mH0mL2: anti-Gal3 antibody (antibody, V domains shown)
# VH: B1 VH
# VL: DIVLTQSPATLSVTPGDSVSFSCRASQIINNNLHWYQQKSHESPRLLIRYTSQSISGIPSRFSGSGSGTDFTLSINNVETEDFGMYFCQQTNSWPLTFGAGTKLELK
# B3: 847.28D1: anti-Gal3 antibody (antibody, V domains shown)
# VH: QVQLVETGPGLVAPSQSLSITCTVSGFSLTSYGVHWIRQSPGKGLEWLGTIWAGGSTDYNSPLMSRLSISKDNSKNQVFLKMNSLQIDDTAIYYCASPPSGYDYDVFASWGQGTLVTVSA
# VL: DIRMTQSPASLSASVGETVTITCRASGNIHNYLAWYHQKQGKSPQLLVYNVKTLADGVPSRFSGSGSGTQFSLKINSLQPEDFGTYYCQHFWSIFPTFGGGTKLEIK
# B4: 847.3B3: anti-Gal3 antibody (antibody, V domains shown)
# VH: B3 VH with V5K, T7S, S40P, T50G, S70T, N76S, I87S, I92M, S109Y
# VL: B3 VL with R3L, H37Q, N50S, V51A, N76D, I94L
# B5: 847.23F11: anti-Gal3 antibody (antibody, V domains shown)
# VH: QVQLQQSGAELVRPGASVKLSCKASGYTFTSSWMNWVKQRPGQGLDWIGMIDPSDSETHYNQMFKDKATLTVDKSSNTAYMQLSRLTSEDSAVYYCVNSNYESGYWGQGTTLTVSS
# VL: DILMTQSHKFMSTSVGDRVSITCKASQDVSSVVVWYQQKPGQSPKQLIYWASTRHTGVPDRFTGSGSGTDYTLTISSVQAEDLALYYCQQHYSTPYTFGGGTKLEIK
# B6: 849.1D2: anti-Gal3 antibody (antibody, V domains shown)
# VH: QVQLKESGPVLVAPSQSLSITCTVSGFSLSSYGVHWVRQPPGKGLEWLGVIWAGGSTDYDSALMSRLSISKDNSKSQVFLKMDSLQTDDTAMYYCAKPPYDYDGAWFAYWGQGTLVTVSA
# VL: DVVMTQTPKFLLVSAGDRVTITCKASQSVSSDVAWYQQKPGQSPKLLIYFASNRYTGVPDRFTGSGYGTDFTFTISTVQAEDLAVYFCQHNYISPFTFGGGTKLEIK
# B7: 2D10-hVH4-HVL2: anti-Gal3 antibody, VH SEQ ID NO: 807, VL SEQ ID NO: 822 (antibody, V domains shown)
# VH: QVQLVQSGAEVKKPGASVKVSCKASGYTFTDYYINWVRQAPGQRLEWMGWIYPGSQDTKYNEKFQGRVTLTVDTSASTAYMELSSLRSEDTAVYFCANYFGSSGWFFDVWGQGTMVTVSS
# VL: DIVMTQSPLSLPVTPGEPASISCRSSKSLLHSDGITYLYWYLQKPGQSPQLLIYRMSNLASGVPDRFSGSGSGTDFTLKISRVEAEDVGVYYCAQMIEFPLTFGQGTKLEIK
# modifications: VH-81 Peptide Sequence; VL-79 Peptide Sequence
# B8: 2D10-hVH3-HVL4: anti-Gal3 antibody, VH SEQ ID NO: 813, VL SEQ ID NO: 828 (antibody, V domains shown)
# VH: B7 VH with N61S, E62Q, L70I, F95Y
# VL: B7 VL with P15L, E17Q, L42Q, K44R, A60D
# modifications: VH-87 Peptide Sequence; VL-85 Peptide Sequence
# B9: 2D10-hVH3-HVL1: anti-Gal3 antibody, VH SEQ ID NO: 810, VL SEQ ID NO: 825 (antibody, V domains shown)
# VH: B7 VH with N61S, E62Q, L70I, F95Y
# VL: B7 VL with L59R
# modifications: VH-84 Peptide Sequence; VL-82 Peptide Sequence
# B10: 2D10-hVH3-HVL3: anti-Gal3 antibody, VH SEQ ID NO: 812, VL SEQ ID NO: 827 (antibody, V domains shown)
# VH: B7 VH with N61S, E62Q, L70I, F95Y
# VL: B7 VL with I2V, P15L, E17Q, L42Q, K44R, Q50R, L59R, A60D
# modifications: VH-86 Peptide Sequence; VL-84 Peptide Sequence
# B11: 2D10-hVH4-HVL3: anti-Gal3 antibody, VH SEQ ID NO: 808, VL SEQ ID NO: 823 (antibody, V domains shown)
# VH: B7 VH
# VL: B7 VL with I2V, P15L, E17Q, L42Q, K44R, Q50R, L59R, A60D
# modifications: VH-82 Peptide Sequence; VL-80 Peptide Sequence
# B12: 2D10-hVH4-HVL4: anti-Gal3 antibody, VH SEQ ID NO: 809, VL SEQ ID NO: 824 (antibody, V domains shown)
# VH: B7 VH
# VL: B7 VL with P15L, E17Q, L42Q, K44R, A60D
# modifications: VH-83 Peptide Sequence; VL-81 Peptide Sequence
# B13: 2D10-hVH3-HVL2: anti-Gal3 antibody, VH SEQ ID NO: 811, VL SEQ ID NO: 826 (antibody, V domains shown)
# VH: B7 VH with N61S, E62Q, L70I, F95Y
# VL: B7 VL
# modifications: VH-85 Peptide Sequence; VL-83 Peptide Sequence
# Biological target: T1, human Gal3 (Homo sapiens, UniProt P17931)
# T1 construct: 6xHis (linker-spaced) (C); purchased AcroBio (Acro Biosystems) GA3-H5129
# Assay: Epitope binning, sandwich format, SPR Carterra LSA (Example 8)
# Assay type: binding
# Conditions: not given
# Protocol: The epitope binning assay was done in a sandwich format on the high-throughput SPR-based Carterra LSA unit (CarterraBio, Salt Lake City, Utah). First, the purified antibodies were diluted to 10 μg/ml concentration in 10 mM NaOAc (pH 5.0) and then were covalently coupled via amine group to HC200M chip activated by EDC and S-NHS to immobilize antibodies to different positions of a 384-spot array. One hundred thirty-eight binning cycles were run on the array of immobilized antibodies. In each cycle, first, human Gal3 (AcroBio GA3-H5129) was injected over the entire array to bind to different antibodies (primary antibody), followed by one antibody (secondary antibody) selected among the panel of 150 anti-GAL3 antibodies tested. At the end of each cycle, the array was regenerated by 10 mM Glycine (pH 2.0) to remove bound antigen and secondary antibody from the array. The data analysis was done using the Epitope software by CarterraBio.
# T1 sequence (P17931 whole entry): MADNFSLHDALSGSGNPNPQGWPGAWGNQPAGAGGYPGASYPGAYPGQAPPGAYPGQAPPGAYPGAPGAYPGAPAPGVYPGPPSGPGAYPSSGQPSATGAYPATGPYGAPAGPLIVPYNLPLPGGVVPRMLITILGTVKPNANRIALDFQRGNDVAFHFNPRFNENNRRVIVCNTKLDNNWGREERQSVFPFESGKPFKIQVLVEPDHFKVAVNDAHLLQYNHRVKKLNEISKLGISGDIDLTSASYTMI
row,Molecule,epitope bin (mutual competitive binding for Gal3)
1,B1,CRD
2,B2,CRD
3,B3,CRD
4,B4,CRD
5,B5,CRD
6,B6,11

# Biological target: T2, Human Gal3 peptides (Homo sapiens, UniProt P17931)
# T2 construct: purchased LifeTein custom order
# Assay: Gal3 peptide binding ELISA (Example 8)
# Conditions: antibody 5 μg/mL
# Protocol: Gal3 peptide binding activity of additional exemplary anti-Gal3 antibodies was assessed with the same peptides as described in FIG. 18 (SEQ ID NOs: 3-26). Human Gal3 peptides (LifeTein, custom order) and human Gal3 proteins (R&D Systems, 8259-GA; TrueBinding, QCB200349) were diluted in PBS (Corning, 21-030-CM) to concentrations of at least 100 μg/mL (peptides) or 1 μg/mL (proteins), and added to the wells of several 96-well ELISA plates (Thermo Fisher, 44-2404-21). After incubating the plates at 4° C. overnight, the plates were washed three times with PBST (PBS with 0.05% Tween 20 [VWR, 0777]). The plates were then blocked for an hour with 2% BSA (EMD Millipore, 126609) in PBST at room temperature with gentle rocking. Thereafter, the 2% BSA in PBST was discarded and Gal3-binding antibodies (reformatted hIgG4 [S228P]) were diluted in 2% BSA in PBST to concentrations of 5 μg/mL and added to the wells. The plates were incubated for an hour at room temperature with gentle rocking and then washed three times with PBST. Afterwards, Peroxidase AffiniPure F(ab′)2 Fragment Goat Anti-Human IgG (H+L) polyclonal antibody (Jackson ImmunoResearch, 109-036-003), was diluted in 2% BSA in PBST (1:4000) and added to the wells. The plates were incubated for 1 hour at room temperature with gentle rocking and then washed three times with PBST. TMB substrate (Thermo Scientific, 34029) was then added to each well. The reaction was stopped with 1M HCl (JT Baker, 5620-02) and read using a plate reader (Molecular Devices) at absorbance of 450 nm.
Molecule,binding to Gal3 peptide 13 (SEQ ID NO: 15),binding to Gal3 peptide 17 (SEQ ID NO: 19),binding to Gal3 peptide 6 (SEQ ID NO: 8),binding to Gal3 peptide 1 (SEQ ID NO: 3)
B1,bound,bound,–,–
B2,bound,bound,–,–
B3,–,–,bound,–
B4,–,bound,–,–
B5,bound,bound,–,–
B6,–,bound,–,bound

# System: GLUT4 translocation in L6 GLUT4myc myoblasts
# Assay: Insulin-stimulated GLUT4 translocation with Gal3 and anti-Gal3 antibody
# Assay type: cell-based, rat
# Conditions: 30 μg/mL Gal3 pre-incubated with 60 μg/mL antibody, 100 nM insulin
# Protocol: Rat L6 GLUT4myc myoblasts (Kerafast #ESK202-FP) express a Myc-tagged GLUT4 that can be detected with an anti-Myc antibody. These cells were grown in a 48-well plate in MEM u growth media (Gibco, #12-571-063)+10% fetal bovine serum (FBS; Corning #35-016-CV) until 90-95% confluence was reached. Cells were then washed in PBS and serum starved for 2 hours in MEM u growth media without FBS. Thirty (30) μg/mL recombinant human Gal3 (TrueBinding QCB200347) was pre-incubated with 60 μg/mL anti-Gal3 antibodies for 30 minutes before being added to the serum-starved cells for 1 hour at 37° C. At the end of incubation, half of the cells were treated with 100 nM insulin (Sigma-Aldrich #I5523-50MG) for 20 minutes while the other half acted as basal controls. After 20 minutes, cells were washed quickly with ice cold PBS twice, then incubated with 4% paraformaldehyde (Boster Bio #AR1068) for 10 minutes on ice followed by 10 minutes at room temperature. The cells were washed three times with PBS, then blocked with 0.5 mL 5% goat serum (Vector Laboratories #101098-382) in PBS for 15 minutes. After the blocking agent was aspirated from the cells, 1 μg/ml anti-Myc polyclonal antibody (Sigma-Aldrich #C-3956) in 5% goat serum was added for 1 hour. […] Primary antibody was aspirated away, and then cells washed 5 times with PBS. Next, cells (including background controls) were incubated with 1:1000 goat anti rabbit antibody secondary antibody (Abcam #Ab97051) in 5% Goat serum for 30 minutes at room temperature. After washing, cells were incubated with 400 μL of TMB (Thermo Scientific #PI34029) for 5 minutes, then 200 μL of 1N HCL (Avantor Performance #JT5620-2) was added to stop the reaction. 100 μL of the sample was transferred to a 96 well plate with duplicates transferred for each condition. Samples were read at 450 nm on a SpectraMax plate reader. […] The fold changes were plotted on GraphPad Prism and presented as mean (SEM) of the technical replicates. Statistical significance was determined using unpaired T-tests comparing samples treated with Gal3 and insulin with all other conditions.
row,Molecule,effect on Gal3 block of insulin-stimulated GLUT4 translocation
1,B7,reduce the ability of Gal3 to block GLUT4 translocation
2,B8,reduce the ability of Gal3 to block GLUT4 translocation
3,B9,reduce the ability of Gal3 to block GLUT4 translocation
4,B10,reduce the ability of Gal3 to block GLUT4 translocation
5,B11,reduce the ability of Gal3 to block GLUT4 translocation
6,B12,reduce the ability of Gal3 to block GLUT4 translocation
7,B13,reduce the ability of Gal3 to block GLUT4 translocation
